Measured values as given in patent US20180273635A1 (Zymeworks, published 2018).
Where a chain is given by its changes, count along the chain named. In names and notes the source's numbering stands. One block for each binder: values may come before it.

Tests used:
[1] = target: T1, HER2 expressed on the surface of cells (human, UniProt P04626 23-1255); assay: flow cytometry on SKBR3 cells, n=1; B50 = concentration at 50% of Bmax
T1 construct: whole, on cells; also called ErbB2
Protocol: (§1) Binding of the test antigen-binding constructs to the surface of HER2+ cells was determined by flow cytometry. Cells were washed with PBS and resuspended in DMEM at 1×10⁵ cells/100 μl. 100 μl cell suspension was added into each microcentrifuge tube, followed by 10 μl/tube of the antigen-binding constructs. The tubes were incubated for 2 hr at 4° C. on a rotator. The microcentrifuge tubes were centrifuged for 2 min 2000 RPM at room temperature and the cell pellets washed with 500 μl media. Each cell pellet was resuspended in 100 μl of fluorochrome-labelled secondary antibody diluted in media to 2 μg/sample. The samples were then incubated for lhr at 4° C. on a rotator. After incubation, the cells were centrifuged for 2 min at 2000 rpm and washed in media. The cells were resuspended in 500 μl media, filtered, transferred to a tube containing 5 μl propidium iodide (PI) and analyzed on a BD LSR II flow cytometer according to the manufacturer's instructions. The B50 of the tested antigen-binding constructs was assessed by FACS with data analysis and curve fitting performed in GraphPad Prism. The experiment was carried out once (n=1) in SKBr3 cells, and twice (n=2) in SKOV3, MCF7, and BT-474 cells.
(§2) The experiment was performed once (n=1) in each cell line.

[2] = target: T1, HER2 expressed on the surface of cells; assay: flow cytometry on MCF7 cells (low HER2), n=1; B50 = concentration at 50% of Bmax
Protocol: as §1, §2

[3] = target: T1, HER2 expressed on the surface of cells; assay: cell-based or functional assay
[4] = target: T1, HER2 expressed on the surface of cells; assay: cell-based or functional assay; remark: listed apart in the source
[5] = target: T1, HER2 expressed on the surface of cells; assay: flow cytometry on MCF7 cells (low HER2), n=1
Protocol: as §1, §2

[6] = target: T1, HER2 expressed on the surface of cells; assay: cell-based or functional assay; remark: listed apart in the source
[7] = target: T1, HER2 expressed on the surface of cells; assay: cell-based or functional assay; remark: listed apart in the source
[8] = target: T1, HER2 expressed on the surface of cells; assay: flow cytometry on BT474 cells, n=1; B50 = concentration at 50% of Bmax
Protocol: as §1, §2

[9] = target: T1, HER2 expressed on the surface of cells; assay: cell-based or functional assay; remark: listed apart in the source
[10] = target: T1, HER2 expressed on the surface of cells; assay: flow cytometry on SKBR3 cells, n=1
Protocol: as §1, §2

[11] = target: T1, HER2 expressed on the surface of cells; assay: flow cytometry on BT474 cells, n=1
Protocol: as §1, §2

[12] = target: T1, HER2 expressed on the surface of cells; assay: cell-based or functional assay; remark: listed apart in the source
[13] = target: T1, HER2 expressed on the surface of cells; assay: cell-based or functional assay; remark: listed apart in the source
Recombinant human HER2 [14] = target: T2, Recombinant human HER2 (human, UniProt P04626 23-652); assay: SPR as in Example 3, average of three independent runs
T2 construct: extracellular domain; Analyte of the SPR assays; also called HER2 ECD; ECD2 of HER2
Protocol: (§3) The affinity towards HER2 ECD of the samples was measured by SPR on a Biacore T200 as follows. Between 2000 and 4000 RU of anti-human Fc injected at concentration between 5 and 10 μg/ml was immobilized on a CM5 chip using standard amine coupling. Antigen-binding constructs were captured on the anti-human Fc (injected at concentration at 0.51 microg/mL in PBST, 1 min at 10 microl/min) at response levels ranging from 120-270 RU. […] HER2 dilutions were analyzed in duplicates. Sensograms were fit globally to a 1: 1 Langmuir binding model, using the software provided with the Biacore T200. All experiments were conducted at 25° C.

Recombinant human HER2 [15] = target: T2, Recombinant human HER2; assay: SPR, Ka ratio to WT pertuzumab
Protocol: as §3

Recombinant human HER2 [16] = target: T3, Recombinant human HER2 (human, UniProt P04626 23-652); assay: SPR, FSA captured on anti-human Fc, HER2 flowed, 25 C, after protein A and SEC
T3 construct: extracellular domain; analyte of the SPR assays; also called HER2 ECD; ECD2 of HER2

Recombinant human HER2 [17] = target: T3, Recombinant human HER2; assay: SPR, variant captured on anti-human Fc, HER2 flowed, 25 C, post-SEC
Protocol: as §3
(§4) The affinity of antigen-binding constructs in OA format was determined by SPR following protein A purification. […] Antigen-binding constructs in FSA format were purified by protein A affinity and SEC prior to assessment of affinity by SPR.

Recombinant human HER2 [18] = target: T3, Recombinant human HER2; assay: SPR, pre-SEC; ratio to WT v10013
Protocol: as §3, §4

Recombinant human HER2 [19] = target: T3, Recombinant human HER2; assay: SPR, variant captured on anti-human Fc, HER2 flowed, 25 C, pre-SEC
Protocol: as §3

Recombinant human HER2 [20] = target: T3, Recombinant human HER2; assay: SPR, post-SEC; ratio to WT v10013
Protocol: as §3, §4

Recombinant human HER2 [21] = target: T4, Recombinant human HER2 (human, UniProt P04626 23-652); assay: SPR at 25 C, affinity against v10014 (itself, reference)
T4 construct: extracellular domain; also called HER2 ECD
Protocol: as §3

Recombinant human HER2 [22] = target: T4, Recombinant human HER2; assay: SPR at 25 C, affinity against WT v10013
Protocol: as §3

Kd (Recombinant human HER2 [16]): 1.8 nM
B3: variant 12471 (antibody, human IgG1, kappa, name in Kabat numbering, V domains shown)
VH: EVQLVESGGGLVQPGGSLRLSCAASGFTFADYTMDWVRQAPGKGLEWVGDVNPNSGGSIYNQRFKGRFTFSVDRSKNTLYLQMNSLRAEDTAVYYCARNLGPSFYFDYWGQGTLVTVSS
VL: DIQMTQSPSSLSASVGDRVTITCKASQDVSIGVAWYQQKPGKAPKLLIYSASYRYTGVPSRFSGSGSGTDFTLTISSLQPEDFATYYCQQYYIYPATFGQGTKVEIKR
notes: FSA, bivalent, wild type Fc; also called v12471; FSA version of v9996

Kd (Recombinant human HER2 [14]): 4 nM
SPR Ka, mut/Ka, WT (Recombinant human HER2 [15]): 3.3 fold
B4: Variant 4434 (antibody, name in Kabat numbering, V domains shown)
VH: B3 VH with G49A, F70L
VL: DIQMTQSPSSLSASVGDRVTITCKASQDVSIGVAWYQQKPGKAPKLLIYSASYRYTGVPSRFSGSGSGTDFTLTISSLQPEDFATYYCQQYYIYPYTFGQGTKVEIK
notes: also called literature pertuzumab variant

Kd (Recombinant human HER2 [14]): 5 nM
SPR Ka, mut/Ka, WT (Recombinant human HER2 [15]): 3.9 fold
B7: Variant 4431 (antibody, name in Kabat numbering, V domains shown)
VH: B3 VH with A30T, G49A, F70L
VL: B4 VL with I31A
notes: as for B4

Kd (Recombinant human HER2 [14]): 15 nM
SPR Ka, mut/Ka, WT (Recombinant human HER2 [15]): 0.9 fold
B8: Variant 4435 (antibody, V domains shown)
VH: B3 VH with A30T, G49A, G57A, F70L
VL: B4 VL
notes: as for B4

Kd (Recombinant human HER2 [17]): 2.8 nM
Ka, mut/Ka, WT (Recombinant human HER2 [18]): 8.3
Kd (Recombinant human HER2 [19]): 2.4 nM
Ka, mut/Ka, WT (Recombinant human HER2 [20]): 7.4
B9: variant 12534 (antibody, human IgG1, kappa)
heavy: EVQLVESGGGLVQPGGSLRLSCAASGFTFADYTMDWVRQAPGKGLEWVADVNPNSGGSIYNQRVKGRFTLSVDRSKNTLYLQMNSLRAEDTAVYYCARNLGPSFYFDYWGQGTLVTVSSASTKGPSVFPLAPSSKSTSGGTAALGCLVKDYFPEPVTVSWNSGALTSGVHTFPAVLQSSGLYSLSSVVTVPSSSLGTQTYICNVNHKPSNTKVDKKVEPKSCDKTHTCPPCPAPELLGGPSVFLFPPKPKDTLMISRTPEVTCVVVDVSHEDPEVKFNWYVDGVEVHNAKTKPREEQYNSTYRVVSVLTVLHQDWLNGKEYKCKVSNKALPAPIEKTISKAKGQPREPQVYVYPPSRDELTKNQVSLTCLVKGFYPSDIAVEWESNGQPENNYKTTPPVLDSDGSFALVSKLTVDKSRWQQGNVFSCSVMHEALHNHYTQKSLSLSPG
light: not shown
chain: not shown
notes: also called v12534

Fold wrt v10014 (Recombinant human HER2 [21]): 1 fold
Fold wrt WT (Recombinant human HER2 [22]): 7 fold
B10: Variant 10014 (pertuzumab T30A / Y96A, one-armed format) (antibody)
heavy: B9 heavy with V64F
light: not shown
Fc: not shown
notes: Monovalent one-armed (OA) antibody; also called v10014

Continued, binder first:

B1: Variant 12471 (antibody, human IgG1, kappa, name in Kabat numbering, V domains shown)
VH: B3 VH
VL: B3 VL
notes: Kabat numbering; also called v12471; FSA version of v9996
B50 [1]: 6.6 nM
B50 [2]: 1.2 nM
growth inhibition IC50 (potency), BT474 cells + EGF [3]: 1 nM
growth inhibition span (percentage of cells killed), BT474 cells + EGF [3]: 27%
growth inhibition span ratio to WT, BT474 cells + EGF [3]: 1.5 fold
growth inhibition span (percentage of cells killed), MDA-MB-175 cells [4]: 75%
Bmax [5]: 570 MFI
growth inhibition IC50 (potency), SKBR3 cells [6]: 0.12 nM
growth inhibition span (percentage of cells killed), SKBR3 cells [6]: 22%
growth inhibition span ratio to WT, SKBR3 cells [6]: 1.3 fold
growth inhibition IC50 (potency), SKBR3 cells, 5 days [7]: 0.1 nM
B50 [8]: 3.1 nM
growth inhibition IC50, BT474 cells + EGF, 6 days [9]: 0.3 nM
growth inhibition IC50, BT474 cells, 6 days [9]: 0.1 nM
Bmax [10]: 27000 MFI
Bmax [11]: 23000 MFI
growth inhibition IC50 (potency), BT474 cells [12]: 0.31 nM
growth inhibition span (percentage of cells killed), BT474 cells [12]: 26%
growth inhibition span ratio to WT, BT474 cells [12]: 2.5 fold
growth inhibition IC50 (potency), NCI-N87 cells, 5 days [13]: 1.8 nM
growth inhibition span (percentage of cells killed), NCI-N87 cells [13]: 32%
increase in efficacy with respect to the WT, NCI-N87 cells [13]: 1.9 fold
increase in potency with respect to the WT, NCI-N87 cells [13]: 5.1 fold

B2: Variant 4436 (antibody, name in Kabat numbering, V domains shown)
VH: B3 VH with A30T, G49A, F64V, F70L
VL: B4 VL
notes: as for B4
Kd (Recombinant human HER2 [14]): 5.7 nM
SPR Ka, mut/Ka, WT (Recombinant human HER2 [15]): 2.4 fold

B5: Variant 4433 (antibody, name in Kabat numbering, V domains shown)
VH: B3 VH with A30T, G49A, F70L
VL: B4 VL with Y96F
notes: as for B4
Kd (Recombinant human HER2 [14]): 10 nM
SPR Ka, mut/Ka, WT (Recombinant human HER2 [15]): 1.3 fold

B6: Variant 4432 (antibody, name in Kabat numbering, V domains shown)
VH: B3 VH with A30T, G49A, F70L
VL: B4 VL with Y96A
notes: as for B4
Kd (Recombinant human HER2 [14]): 7.7 nM
SPR Ka, mut/Ka, WT (Recombinant human HER2 [15]): 1.7 fold

B11: variant 12610 (antibody, human IgG1, kappa)
heavy: B9 heavy with V64F
light: not shown
chain: not shown
notes: OA pertuzumab variant, HC T30A (Kabat); also called v12610
Kd (Recombinant human HER2 [17]): 4.6 nM
Ka, mut/Ka, WT (Recombinant human HER2 [18]): 3.9
Kd (Recombinant human HER2 [19]): 5.1 nM
Ka, mut/Ka, WT (Recombinant human HER2 [20]): 4.5

B12: variant 12611 (antibody, human IgG1, kappa)
heavy: B9 heavy with A30T, V64F
light: not shown
chain: not shown
notes: OA pertuzumab variant, LC Y96A (Kabat); also called v12611
Kd (Recombinant human HER2 [17]): 11 nM
Ka, mut/Ka, WT (Recombinant human HER2 [18]): 1.8
Kd (Recombinant human HER2 [19]): 11 nM
Ka, mut/Ka, WT (Recombinant human HER2 [20]): 1.8
